Experimental data as given in the supplement of paper PMC12042874.
± gives the uncertainty stated by the source.

Assay: amyloid nucleation score (Sup35N fusion, yeast selection) (log enrichment); library NNK3; higher = more nucleation; inactive = no reads after selection
Outline: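 Libraries of peptides of 20 random codons fused to Sup35N were expressed in psi-negative yeast and induced 24 hours with 100 μM copper sulfate. Selection was 7 days at 30°C on medium lacking adenine and uracil, and plasmid inserts were Illumina-sequenced before and after selection. Nucleation score is the DiMSum log enrichment of output over input reads, centred on the mode score of non-aggregating sequences, and sequences with under 100 input reads were left out.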

IFVWGNNLTMSLSVFNNA
amyloid nucleation score: 2.58 ± 0.072

LYPVTKR
amyloid nucleation score: inactive

GNIEGVRNVVALTMHVVNWV
amyloid nucleation score: 2.2 ± 0.091

DHYAWIFTDRLWYCRCNTVT
amyloid nucleation score: inactive

YLSINTAEYHFQEQVLVFVY
amyloid nucleation score: inactive

WTYTKVWIWS
amyloid nucleation score: inactive

SFDARCGWKLNMFYSCSFIQ
amyloid nucleation score: -0.009 ± 0.81

LYSETWEY
amyloid nucleation score: inactive

FYFYSVCYYGRWIKKPCHLR
amyloid nucleation score: inactive

VKGMKCWCQVRSESGLVSNA
amyloid nucleation score: inactive

YSFSNVLVLGSTGPGTSSQA
amyloid nucleation score: inactive

NELVLKYRSTVVLVKLW
amyloid nucleation score: inactive

GILCCAL
amyloid nucleation score: inactive

MLIGWC
amyloid nucleation score: inactive

LLLIWWNLALNLKLFFELKV
amyloid nucleation score: inactive

MNGIGNYLDTYMGSCHVEDM
amyloid nucleation score: inactive

SRFRFMGNVRQFLQPYRRLH
amyloid nucleation score: 0.347 ± 0.2

ILYWVYCSYSSNHDLYLFII
amyloid nucleation score: inactive

YKLICMSSRWTFLSSRQGEF
amyloid nucleation score: inactive

NKNHYFRVF
amyloid nucleation score: inactive

ESVRRMLLTLGAHWGSPIHF
amyloid nucleation score: inactive

NCMFPGYLYNVDITLMDV
amyloid nucleation score: inactive

RLEGRLLCKWVCP
amyloid nucleation score: 1.96 ± 0.069

CMQLVMSYTVCFVDGGVLA
amyloid nucleation score: inactive

RRLVMDTTRLACKRYWRFLN
amyloid nucleation score: inactive

RNWCSLNNLFYPWV
amyloid nucleation score: 1.78 ± 0.12

IIFNFFSRVLELLMLGYPYT
amyloid nucleation score: inactive

LGFFCVIFVS
amyloid nucleation score: inactive

VFFRYWV
amyloid nucleation score: 1.62 ± 0.073

CSIVVNLMYLLVDACMGPKG
amyloid nucleation score: inactive

MLGWCYLMTTCE
amyloid nucleation score: inactive

VALLTYFWYGPIKGVAS
amyloid nucleation score: inactive

PNPYGNGIITWKN
amyloid nucleation score: inactive

VTFSCLYVFFYRQVIRCFGM
amyloid nucleation score: 0.059 ± 0.26

DLVFWTINWSPGAHGTTSSG
amyloid nucleation score: inactive

NYSMNARGPVKDLAVFGSRG
amyloid nucleation score: inactive

ILLGIEAPCVSITYYFKTFL
amyloid nucleation score: 1.32 ± 0.13

IFEVFSVNKV
amyloid nucleation score: inactive

EIRRCTPCLLWVLLLFAINR
amyloid nucleation score: inactive

VDVVLGMSIG
amyloid nucleation score: inactive

FVERTRKRVNVRRNRHVTET
amyloid nucleation score: inactive

DAYREY
amyloid nucleation score: -0.557 ± 1.2

CFKPILDLGSKCLFVLVVGK
amyloid nucleation score: inactive

MDAISFQRDMMFNGGFFCAM
amyloid nucleation score: inactive

MSWGGCNAVRKFFECRRRVQ
amyloid nucleation score: 0.222 ± 0.5

MLFPPLLGNWLDSGTTQVRR
amyloid nucleation score: inactive

IFWSFTGT
amyloid nucleation score: inactive

FETGCW
amyloid nucleation score: inactive

CIVAANHRRCNFLRLGRRLG
amyloid nucleation score: -0.654 ± 1.5

CFRLPCVQESVPDKVLLTGS
amyloid nucleation score: inactive

FGTGDMCKQCRHDVVRHSCL
amyloid nucleation score: inactive

DQGLNC
amyloid nucleation score: inactive

NKGLNL
amyloid nucleation score: inactive

IFHMVVLVLAGKFILVISCS
amyloid nucleation score: inactive

IRSDTVSTARPGNLTNC
amyloid nucleation score: inactive

FLLVFC
amyloid nucleation score: -0.021 ± 0.3

CFVGHADLKFMGFHWMVGEC
amyloid nucleation score: inactive

NIGYSLWRHYTNSRG
amyloid nucleation score: inactive

DYITYVYYVSVRF
amyloid nucleation score: -0.124 ± 0.82

RSNLIILSAHYRLYMDLRCA
amyloid nucleation score: inactive

SDFAIWKDFDG
amyloid nucleation score: 1.21 ± 0.1

KFLYGGFCGWMSAVLNVLYP
amyloid nucleation score: -0.364 ± 0.82

TGVFDFRRVVLLVSHSEV
amyloid nucleation score: inactive

LLCMWFCKSRLPRCSKCCSR
amyloid nucleation score: inactive

LGMSYVYTTGLQKQAASQ
amyloid nucleation score: inactive

SMCDMYYLVACTPHMIVQLY
amyloid nucleation score: -0.111 ± 0.69

PKIRSF
amyloid nucleation score: inactive

MSSSIILWNFCNMDRCSLVG
amyloid nucleation score: 2.23 ± 0.087

CKFEMSEIDFVYASSIFR
amyloid nucleation score: inactive

CVDFR
amyloid nucleation score: inactive

NSCYRRHMCWCFSKAEFLTL
amyloid nucleation score: inactive

GMLGLMAGKNLEGADRL
amyloid nucleation score: inactive

MSVQGDHYFPT
amyloid nucleation score: inactive

GIASFECGDSCKSVN
amyloid nucleation score: inactive

GLMLYTSMVGSYDDWPD
amyloid nucleation score: inactive

RFGAGILRSSNQDSGFRVTG
amyloid nucleation score: inactive

MMSDNDISLRRYFVQCLKSS
amyloid nucleation score: inactive

SDKRPWGFRNRDIYVIVGHR
amyloid nucleation score: inactive

DINCSWTLQNGRGTLSE
amyloid nucleation score: inactive

LCLFGLLYNIETFSIVVDYS
amyloid nucleation score: inactive

DSGVSEQWGGGIELILSWCL
amyloid nucleation score: inactive

DFGHVIQSSWNSMNSAQSVA
amyloid nucleation score: inactive

FSSNTT
amyloid nucleation score: inactive

SDLMRKKMDGMDRNEGCPIR
amyloid nucleation score: inactive

IDTWFISFRCMFSGNYMYFL
amyloid nucleation score: inactive

LIVAFSLASLGLKFSQCSWA
amyloid nucleation score: -0.363 ± 0.96

YSNWLTSRNYTNLLLL
amyloid nucleation score: inactive

RMFKFGTCYKSVGPTKRAEC
amyloid nucleation score: inactive

WRVSFTLS
amyloid nucleation score: inactive

CLCWKAVLDRELFKSGFTAA
amyloid nucleation score: inactive

STLNGGSWVMIYAEDLTS
amyloid nucleation score: inactive

MHGTI
amyloid nucleation score: inactive

WHSWAFGTGCGSRTFEG
amyloid nucleation score: 0.526 ± 0.17

WTRVFLRTKGRSEFLLRWPL
amyloid nucleation score: inactive

IDCILVTGLHVDLLEWQKRQ
amyloid nucleation score: 2.03 ± 0.086

VMHMWCHQGRVWFSTSGFLG
amyloid nucleation score: 0.35 ± 0.19

LWLMVFWKINGNMLGCHPEM
amyloid nucleation score: inactive

IPFRLFQNDSEKMSWSCDVT
amyloid nucleation score: inactive

STYLGDVSLSFVRVWSVNGS
amyloid nucleation score: 1.29 ± 0.078

LHFVVFAYYKRLMDSQIC
amyloid nucleation score: inactive

VSRPS
amyloid nucleation score: inactive

YEDQRSLRFCR
amyloid nucleation score: inactive

VFNRSCINFKRYGSA
amyloid nucleation score: inactive

TCYITA
amyloid nucleation score: inactive

GFRYALHSLIDR
amyloid nucleation score: inactive

VANYGQVQHWYRGYVEDEGL
amyloid nucleation score: inactive

AWELEKTTYRRGRAIVVHTP
amyloid nucleation score: inactive

LMFDVFLMSTFVFDNL
amyloid nucleation score: inactive

IGDMSLLLTCGGWSLIQLQA
amyloid nucleation score: inactive

DCRWVCKFYPPVFNVIVEKV
amyloid nucleation score: inactive

IDLFRSFSLAVLVVYMSEDW
amyloid nucleation score: inactive

KRGMSHVSVCFIMRCFLYID
amyloid nucleation score: inactive

EIVSWVDHFYWTWTGYHKCW
amyloid nucleation score: -0.886 ± 1

GHIKWGNCSSYVSGFKLTCG
amyloid nucleation score: inactive

FSLRVGMKVHISKIRLGCCK
amyloid nucleation score: inactive

EVPNFYNLPSWSA
amyloid nucleation score: inactive

WGWGCLCMWYICYSCVYRDR
amyloid nucleation score: 0.708 ± 0.28

SHIFCSFFKSSYLNSGWQHG
amyloid nucleation score: inactive

VTSESSSMGLTLSF
amyloid nucleation score: inactive

GSDEEESLNCSYASSLTSVC
amyloid nucleation score: inactive

LCDFSLGGYSGNCYIFKMSV
amyloid nucleation score: 0.739 ± 0.28

MYYRTRQELTSCPRNQNIL
amyloid nucleation score: -0.069 ± 0.85

WPDLQLLSSALPTPLQFSWL
amyloid nucleation score: inactive

YWLMKALQIWHSENRFRYIE
amyloid nucleation score: inactive

FLCWIYDECKGVRCVRLGAI
amyloid nucleation score: inactive

TALWYSYFSTKNDMSLQFAP
amyloid nucleation score: -0.673 ± 1.1

MIFKKDSLGMILHFHHYFYN
amyloid nucleation score: inactive

IVRWGSQSGVYRMPIEAWKW
amyloid nucleation score: inactive

NSRARSSYRIMNWWLLFDMT
amyloid nucleation score: inactive

LLKPTVRCKPRLK
amyloid nucleation score: inactive

RKEMLKMRRFRSRGCWVILS
amyloid nucleation score: inactive

FSMAFYMYG
amyloid nucleation score: 0.163 ± 0.25

SWRLYMMA
amyloid nucleation score: inactive

YACETVMSFVYMITFIRYLR
amyloid nucleation score: inactive

QFTGHINRDVNM
amyloid nucleation score: inactive

RSTRIGLIYYMGMSATCTWG
amyloid nucleation score: inactive

CIFFRVGSFLNYFYASAWHS
amyloid nucleation score: inactive

CCVCLCACRLFCSIVADYRR
amyloid nucleation score: inactive

LFLDWALIFLV
amyloid nucleation score: inactive

ENSSLFFLRDCELWWNVRTR
amyloid nucleation score: 1.59 ± 0.094

LISCAMGRELTYRSNSRRGR
amyloid nucleation score: inactive

HKLAKTNRSSIIVCGNRVLL
amyloid nucleation score: 0.916 ± 0.11

WDYKAGISSSLSAIGCLYGD
amyloid nucleation score: inactive

YQNILLAYYDWVVLYQ
amyloid nucleation score: inactive

WVFRFRNQ
amyloid nucleation score: inactive

NAALIVCLITFYVLGIFLAG
amyloid nucleation score: inactive

IHPPSGYPGSGLSLCCSKNS
amyloid nucleation score: inactive

LNSDIVVNLNIAWSYCIV
amyloid nucleation score: 1.39 ± 0.068

CIMALGSNVLFRLEN
amyloid nucleation score: 1.51 ± 0.091

LRFMRSI
amyloid nucleation score: inactive

PTFCNQNFGNTFGCKRFYLS
amyloid nucleation score: inactive

ADKRSMMWKFMFSRFCGRVT
amyloid nucleation score: inactive

YGHSRWSKISHRSSACLFGS
amyloid nucleation score: inactive

TKWVVASLVCKSAGKTGRVI
amyloid nucleation score: inactive

VFSGGVRETLNSS
amyloid nucleation score: inactive

WYRMLFIRSKDSMDKMPIFL
amyloid nucleation score: inactive

VHRWGYQCSWVEQ
amyloid nucleation score: inactive

QCVCLS
amyloid nucleation score: inactive

SFCGLYVKFSVGYVVLIWGS
amyloid nucleation score: inactive
